Experiment [1] has as its target human c-Met (HGFR), full length, on the cell surface (human) (UniProt P08581). Nature of the experiment: cell-based or functional assay.
For experiment [2], the target named is T1, human c-Met (HGFR), full length, on the cell surface (human, UniProt P08581 25-1390).
T1 construct: Endogenous c-Met on human tumor cell lines MKN45, NCI-H596, PC-3 and HepG2; also called hepatocyte growth factor receptor; mesenchymal-epithelial transition factor
Nature of the experiment: flow cytometry, PC-3 cells, without HGF. The protocol: (§1) Cellular binding of the in total 75 humanized anti-c-Met antibodies (originating from the three selected chimeric antibodies) was studied in human c-Met-positive tumor cell lines MKN45, NCI-H596 and PC-3, rhesus c-Met-positive tumor cell line 4 MBr-5, and human c-Met-negative tumor cell line MDA-MB-175-VII. Cells were used around 90% of confluence at the time of an assay, detached with Trypsin-Versene (EDTA) (Lonza) for 5-10 minutes, washed and adjusted to a concentration of 1×10⁶ cells/mL in ice-cold FACS buffer (PBS 1×, 0.1% v/w BSA, 0.02% v/v sodium azide (NaN₃)). Staining was performed in 96-well round-bottomed microtiter plates using ice-cold reagents/solutions at 4° C. to prevent the modulation and internalization of surface antigens. 100,000 cells/well were added to 96-well plates (100 μL/well) and centrifuged at 300×g for 3 minutes. In case of pre-incubation with HGF, the cells were resuspended in 50 ng/mL recombinant human HGF in FACS buffer (50 μL/well) and incubated for 30 minutes at 4° C., followed by two wash steps with 150 μL FACS buffer. Supernatant was discarded and cells were stained for 30 minutes with 50 μL of each antibody. Serial dilutions were made in ice-cold FACS buffer. Cells were washed twice by centrifugation at 300×g for 3 minutes and resuspended in 50 μL 6000-times diluted secondary F(ab′)₂ goat anti-human IgG (Fc fragment specific) antibody APC-conjugated (Jackson ImmunoResearch). Following a 30-minute incubation on ice, cells were washed again 2 times and resuspended in 150 μL ice-cold FACS buffer for FACS analysis. For analysis of the data, the Median Fluorescence Intensity (MFI) values were obtained.

For experiment [3], the target named is T1, human c-Met (HGFR), full length, on the …. Briefly: flow cytometry, MKN45 cells, without HGF. The protocol: as §1
A general note: Flow cytometry measures light scatter and fluorescence of single cells or particles in a stream.

The target of experiment [4] is T2, rhesus c-Met on 4MBr-5 cells (rhesus, UniProt F7H1K4 25-1381, Natural c-Met is cleaved at the furin site (KRKKR/S) into disulphide-linked alpha and beta subunits; given here as one mature polypeptide.).
T2 construct: also called rhesus c-Met antigen
T2 sequence (F7H1K4 entry or part of it limits assumed): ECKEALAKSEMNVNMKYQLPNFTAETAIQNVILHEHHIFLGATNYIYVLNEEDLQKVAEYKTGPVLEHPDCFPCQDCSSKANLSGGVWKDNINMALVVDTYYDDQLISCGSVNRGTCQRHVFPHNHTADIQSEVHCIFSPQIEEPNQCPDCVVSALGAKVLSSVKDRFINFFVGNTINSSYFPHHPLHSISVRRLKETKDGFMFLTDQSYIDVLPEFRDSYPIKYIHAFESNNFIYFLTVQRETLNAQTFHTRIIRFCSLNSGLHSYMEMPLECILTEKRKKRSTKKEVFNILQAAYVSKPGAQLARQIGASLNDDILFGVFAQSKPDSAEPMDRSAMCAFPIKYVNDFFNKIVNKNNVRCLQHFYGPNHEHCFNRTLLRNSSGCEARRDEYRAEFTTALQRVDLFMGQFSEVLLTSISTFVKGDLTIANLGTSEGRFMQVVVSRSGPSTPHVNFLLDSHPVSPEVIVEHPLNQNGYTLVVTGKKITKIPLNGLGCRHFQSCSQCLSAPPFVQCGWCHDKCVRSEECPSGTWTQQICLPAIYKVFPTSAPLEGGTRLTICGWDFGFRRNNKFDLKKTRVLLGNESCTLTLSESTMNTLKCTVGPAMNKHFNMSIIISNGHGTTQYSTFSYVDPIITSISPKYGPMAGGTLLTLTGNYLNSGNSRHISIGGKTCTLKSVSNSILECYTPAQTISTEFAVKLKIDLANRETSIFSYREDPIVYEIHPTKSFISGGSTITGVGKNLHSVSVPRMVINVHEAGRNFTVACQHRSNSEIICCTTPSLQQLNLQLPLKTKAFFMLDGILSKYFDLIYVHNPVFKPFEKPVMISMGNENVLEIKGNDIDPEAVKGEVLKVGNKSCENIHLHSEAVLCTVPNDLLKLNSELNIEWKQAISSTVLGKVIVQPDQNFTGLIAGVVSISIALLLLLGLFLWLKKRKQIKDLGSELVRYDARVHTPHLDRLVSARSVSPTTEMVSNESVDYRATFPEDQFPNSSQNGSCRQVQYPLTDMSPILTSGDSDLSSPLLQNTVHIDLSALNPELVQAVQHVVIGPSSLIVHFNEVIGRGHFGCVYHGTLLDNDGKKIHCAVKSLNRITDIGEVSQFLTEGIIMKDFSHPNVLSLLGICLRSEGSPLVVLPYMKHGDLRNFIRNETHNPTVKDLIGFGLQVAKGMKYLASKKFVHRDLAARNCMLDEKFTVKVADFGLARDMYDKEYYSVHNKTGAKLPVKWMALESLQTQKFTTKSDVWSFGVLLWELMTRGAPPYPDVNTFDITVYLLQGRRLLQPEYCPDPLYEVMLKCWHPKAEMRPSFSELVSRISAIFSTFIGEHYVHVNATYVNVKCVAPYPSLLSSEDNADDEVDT
Nature of the experiment: flow cytometry, 4MBr-5 cells, without HGF. The protocol:
as §1

For experiment [5], the target named is T1, human c-Met (HGFR), full length, on the …. Nature of the experiment: flow cytometry, NCI-H596 cells, without HGF. The protocol:
as §1

Experiment [6] shares this target. Briefly: flow cytometry, PC-3 cells pre-incubated with 50 ng/mL HGF. The protocol: as §1
Experiment [7] addresses T2, rhesus c-Met on 4MBr-5 cells. Briefly: flow cytometry, 4MBr-5 cells pre-incubated with 50 ng/mL HGF. The protocol:
as §1

The target of experiment [8] is T1, human c-Met (HGFR), full length, on the …. Nature of the experiment: flow cytometry, NCI-H596 cells pre-incubated with 50 ng/mL HGF. The protocol: as §1
The target is the same in experiment [9]. Briefly: flow cytometry, PC-3 cells; EC50 with 50 ng/mL HGF against EC50 without HGF. The protocol:
as §1

Experiment [10] has as its target T2, rhesus c-Met on 4MBr-5 cells. Briefly: flow cytometry, 4MBr-5 cells; EC50 with 50 ng/mL HGF against EC50 without HGF. The protocol: as §1
The target in experiment [11] is T1, human c-Met (HGFR), full length, on the …. Nature of the experiment: flow cytometry, NCI-H596 cells; EC50 with 50 ng/mL HGF against EC50 without HGF. The protocol:
as §1

For experiment [12] the target is unchanged. Nature of the experiment: cell-based or functional assay.

Residue numbers refer to the chain shown, from its start. Where only a bound is given, the exact number is not on record here.

T1 sequence (P08581 25-1390 limits assumed): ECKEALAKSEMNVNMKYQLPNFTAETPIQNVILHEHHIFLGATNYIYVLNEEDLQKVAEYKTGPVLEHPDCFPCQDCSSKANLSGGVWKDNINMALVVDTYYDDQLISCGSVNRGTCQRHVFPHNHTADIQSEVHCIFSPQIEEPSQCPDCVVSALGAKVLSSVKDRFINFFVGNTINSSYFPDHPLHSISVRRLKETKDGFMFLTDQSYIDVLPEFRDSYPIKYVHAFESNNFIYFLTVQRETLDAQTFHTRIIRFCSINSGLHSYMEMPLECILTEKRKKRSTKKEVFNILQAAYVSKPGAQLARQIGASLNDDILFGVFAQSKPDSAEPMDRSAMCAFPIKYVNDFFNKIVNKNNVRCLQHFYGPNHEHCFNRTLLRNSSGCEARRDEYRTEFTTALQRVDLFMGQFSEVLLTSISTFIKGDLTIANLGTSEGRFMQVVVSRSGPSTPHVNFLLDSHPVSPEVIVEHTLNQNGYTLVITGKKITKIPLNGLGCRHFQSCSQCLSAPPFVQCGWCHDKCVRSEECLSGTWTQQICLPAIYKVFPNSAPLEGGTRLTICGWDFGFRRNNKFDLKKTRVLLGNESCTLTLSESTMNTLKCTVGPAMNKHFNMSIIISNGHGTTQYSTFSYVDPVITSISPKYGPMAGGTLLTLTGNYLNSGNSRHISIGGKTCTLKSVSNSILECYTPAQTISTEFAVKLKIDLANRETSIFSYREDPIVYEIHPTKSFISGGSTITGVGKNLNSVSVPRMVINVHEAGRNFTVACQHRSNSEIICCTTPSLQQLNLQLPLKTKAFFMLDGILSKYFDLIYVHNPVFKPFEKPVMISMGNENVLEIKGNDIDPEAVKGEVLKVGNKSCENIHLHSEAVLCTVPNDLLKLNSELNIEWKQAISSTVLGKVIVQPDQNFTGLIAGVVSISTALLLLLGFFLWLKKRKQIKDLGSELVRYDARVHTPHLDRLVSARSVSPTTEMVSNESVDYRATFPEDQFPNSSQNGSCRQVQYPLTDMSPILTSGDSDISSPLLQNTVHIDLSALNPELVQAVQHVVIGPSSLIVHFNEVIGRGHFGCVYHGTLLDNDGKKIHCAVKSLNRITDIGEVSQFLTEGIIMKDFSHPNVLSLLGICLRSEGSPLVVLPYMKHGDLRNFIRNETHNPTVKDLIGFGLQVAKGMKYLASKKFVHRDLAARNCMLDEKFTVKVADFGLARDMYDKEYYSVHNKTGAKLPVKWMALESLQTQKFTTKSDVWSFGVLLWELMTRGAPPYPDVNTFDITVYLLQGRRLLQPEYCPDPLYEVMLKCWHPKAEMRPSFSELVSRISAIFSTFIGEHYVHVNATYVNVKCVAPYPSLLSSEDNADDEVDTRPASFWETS
Sequence of human c-Met (HGFR), full length, on the cell surface (human) (P08581 25-1390 limits assumed): as above

With “non-binding control ADC (rituximab-vc-seco-DUBA) (antibody)”, in experiment [1], the Efficacy (%), in vitro cytotoxicity, MKN-45, -HGF came out at 0%; the Efficacy (%), in vitro cytotoxicity, NCI-H596, +HGF was 18%; the Efficacy (%), in vitro cytotoxicity, NCI-H596, -HGF was 7%; the Efficacy (%), in vitro cytotoxicity, PC-3, +HGF came to 36%. In experiment [1], the Efficacy (%), in vitro cytotoxicity, PC-3, -HGF worked out at 36%; the IC50, in vitro cytotoxicity, MKN-45, -HGF is over 10 nM; the IC50, in vitro cytotoxicity, NCI-H596, +HGF is over 10 nM; the IC50, in vitro cytotoxicity, NCI-H596, -HGF was over 10 nM. Also, in [1], the IC50, in vitro cytotoxicity, PC-3, +HGF was over 10 nM and the IC50, in vitro cytotoxicity, PC-3, -HGF is over 10 nM.

B1: mAb1a (antibody, human IgG1, kappa, V domains shown)
VH: QVQLVQSGAEVKKPGASVKVSCKASGYIFTDYFMNWVRQACGQGLEWMGRVNPKNGDITYNQKFRGRVSLTKDTSINTAYMELSGLTSDDTAIYYCAYDGYYDGMDFWGQGTSVTVSS
VL: ELVMTQSPSSLSASVGDRVTITCRANSSVSSNFLHWYQQKPGKAPKLLISSTSNLAFGVPSRFSGTGSGTDFSLTISSLQPEDFAIYYCHQYSGHPFTFGQGTKLEIKR
notes: Humanized IgG1 kappa, HC-41C, from wt/41C-chi-mAb1; also called humanized HC-41C antibody mAb1a; mAbla
The EC50 is the midpoint of the concentration-response curve. As for B1, the EC50 came to 0.08 µg/mL in [2]; 0.16 µg/mL in [3]; 0.07 µg/mL in experiment [4]; 0.04 µg/mL in [5]; 0.15 µg/mL in experiment [6]; 0.08 µg/mL in experiment [7]. The midpoint of the response in experiment [8], the EC50, lay at 0.1 µg/mL. Moreover, the “Fold shift (HGF)” value in experiment [9] was found to be 1.9 fold; in experiment [10], 1.1 fold; in [11] it was 2.5 fold.

B2: ADC2 (antibody, human IgG1, kappa, V domains shown)
VH: QVQLQQSGAELVRPGASVKLSCKASGYVFPDYEMHWVKQTCVHGLEWIGAFDPETGDTTYNQNFKGKATLTADKASSTAYMDLRSLTSGDSAVYYCARDYKYLYYYAMDNWGQGTSVTVSS
VL: QIVLTQSPAIMSASLGERVTMTCTASSSITSSYLHWYQQKPGSSPKLWIYSTTNLASGVPGRFSGSGSGTSFSLTISSMEAEDAATYYCHQYRRSPLTFGAGTKLELKR
modifications: vc-seco-DUBA linker-drug on the engineered cysteine at HC position 41 (Kabat); DAR 1.7
For B2, in [12], the “Efficacy (%), in vitro cytotoxicity, MKN-45, -HGF” value was found to be 76%; the “Efficacy (%), in vitro cytotoxicity, NCI-H596, +HGF” value came to 32%; the “Efficacy (%), in vitro cytotoxicity, NCI-H596, -HGF” value is 6%; the “Efficacy (%), in vitro cytotoxicity, PC-3, +HGF” value is 69%. Also, in experiment [12], the “Efficacy (%), in vitro cytotoxicity, PC-3, -HGF” value was 69%; the “IC50 1, in vitro cytotoxicity, PC-3, -HGF” value is 0.05 nM; the “IC50 2, in vitro cytotoxicity, PC-3, -HGF” value came out at 84 nM; the “IC50, in vitro cytotoxicity, MKN-45, -HGF” value came out at 0.44 nM. In [12], the “IC50, in vitro cytotoxicity, NCI-H596, +HGF” value was over 10 nM; the “IC50, in vitro cytotoxicity, NCI-H596, -HGF” value is over 10 nM; the “IC50, in vitro cytotoxicity, PC-3, +HGF” value is about 10 nM.

B3: mAb2c (antibody, human IgG1, kappa, V domains shown)
VH: QVQLVQSGAEVKKPGSSVKVSCKASGYVFPDYEMHWVRQACGQGLEWMGAFDPETGDTTYNQNFKGRVTITADKSTSTAYMELSSLRSEDTAVYYCARDYKYLYYYAMDNWGQGTTVTVSS
VL: EIVLTQSPSLLSASIGDRVTIPCTASSSITSSYLHWYQQKPGKAPKLLIYSTTNLASGVPSRFSGSGSGTEFTLTISSLQPEDFATYYCHQYRRSPLTFGGGTKLEIKR
notes: Humanized IgG1 kappa, HC-41C, from wt/41C-chi-mAb2; also called humanized HC-41C antibody mAb2c
Take B3: the EC50 came out at 0.03 µg/mL in experiment [2]; 0.11 µg/mL in experiment [3]; 0.07 µg/mL in experiment [4]; 0.03 µg/mL in experiment [5]; 0.09 µg/mL in experiment [6]; 0.09 µg/mL in experiment [7]. In addition, the 50% effective concentration (EC50) in experiment [8] was 0.1 µg/mL. The results for the “Fold shift (HGF)” value in experiment [9], in experiment [10] and in experiment [11] were 3.1 fold, 1.2 fold and 3.3 fold, respectively.

B4: mAb2b (antibody, human IgG1, kappa, V domains shown)
VH: B3 VH
VL: B3 VL with E1D, V3Q, L4M, L10S, I15V, P22T, E71D
notes: Humanized IgG1 kappa, HC-41C, from wt/41C-chi-mAb2; also called humanized HC-41C antibody mAb2b
On to B4, for which the EC50 in [2] was 0.05 µg/mL; in experiment [3], 0.14 µg/mL; in [4], 0.09 µg/mL; in experiment [5], 0.04 µg/mL; in experiment [6] it was 0.13 µg/mL; in experiment [7], 0.15 µg/mL. The same molecule had an EC50 in [8] of 0.11 µg/mL. For the same molecule, the “Fold shift (HGF)” value in [9] is 2.6 fold; in [10], 1.7 fold; in [11], 2.8 fold.

B5: mAb2a (antibody, human IgG1, kappa, V domains shown)
VH: B3 VH with V11L, K12R, K23R, T71A, S84R, V93I, T116M
VL: B3 VL
notes: Humanized IgG1 kappa, HC-41C, from wt/41C-chi-mAb2; also called humanized HC-41C antibody mAb2a
In the case of B5, the EC50 in [2] was determined as 0.04 µg/mL; in experiment [3], 0.09 µg/mL; in experiment [4], 0.06 µg/mL; in experiment [5], 0.02 µg/mL; in experiment [6] it was 0.09 µg/mL; in experiment [7], 0.09 µg/mL. The same molecule yielded an EC50 in [8] of 0.08 µg/mL. Also, the “Fold shift (HGF)” value in [9] is 2.3 fold; in experiment [10], 1.4 fold; in experiment [11], 4 fold.

B6: mAb3c (antibody, human IgG1, kappa, V domains shown)
VH: QVQLVQSGAEVKKPGASVKVSCKASGYTFTDYYLNWVRQACGQGLEWMGLIFPGNDKTEYSEKFKGRVTLTTDTSISTAYMELSSLTSDDTALYYCSGGDYGGFVYWGQGTLVTVSS
VL: DIQMTQSPSSLSASVGDRVTITCGASENIYGALNWYQQKPGKAPKLLIYGATNLADGVPSRFSGSGSGTDFTLTISSLQPEDVATYYCQNVLSSPLTFGSGTKLEIKR
notes: Humanized IgG1 kappa, HC-41C, from wt/41C-chi-mAb3; also called humanized HC-41C antibody mAb3c
B6: the EC50 was 0.03 µg/mL in [2]; 0.05 µg/mL in experiment [3]; 0.02 µg/mL in [4]; 0.02 µg/mL in [5]; 0.06 µg/mL in experiment [6]; 0.03 µg/mL in experiment [7]. In [8], the EC50 was 0.11 µg/mL. The “Fold shift (HGF)” value is 1.9 fold in [9], 1.7 fold in experiment [10] and 5.5 fold in experiment [11].

B7: mAb3a (antibody, human IgG1, kappa, V domains shown)
VH: B6 VH
VL: B6 VL with M4L, V83F, S100P, L104V, E105D
notes: Humanized IgG1 kappa, HC-41C, from wt/41C-chi-mAb3; also called humanized HC-41C antibody mAb3a
B7: the EC50 amounted to 0.03 µg/mL in [2]; 0.07 µg/mL in experiment [3]; 0.04 µg/mL in experiment [4]; 0.02 µg/mL in [5]; 0.07 µg/mL in experiment [6]; 0.03 µg/mL in experiment [7]. This molecule also yielded an EC50 in experiment [8] of 0.08 µg/mL. Moreover, the entries for the “Fold shift (HGF)” value in experiment [9], in experiment [10] and in experiment [11] were 2.4 fold, 0.8 fold and 4 fold, respectively.

B8: mAb3e (antibody, human IgG1, kappa, V domains shown)
VH: B6 VH with V5Q, Q6E, L70M, T72R, I76T, A79V, T87R, D89E, L93V
VL: B6 VL
notes: Humanized IgG1 kappa, HC-41C, from wt/41C-chi-mAb3; also called humanized HC-41C antibody mAb3e
With B8, the EC50 in [2] was 0.03 µg/mL; in experiment [3], 0.07 µg/mL; in experiment [4], 0.03 µg/mL; in experiment [5], 0.02 µg/mL; in [6], 0.09 µg/mL; in experiment [7], 0.04 µg/mL. The molecule also yielded a 50% effective concentration (EC50) in [8] of 0.14 µg/mL. The “Fold shift (HGF)” value in [9] turned out to be 2.8 fold; in [10] it was 1.4 fold; in [11], 7 fold.
